# In publication doi:10.1101/2023.05.12.540488 (bioRxiv, 2023):
# Read-outs that look alike come from different tables or passages of the source.
# B1: S-adenosyl-L-homocysteine hydrolase from Mus musculus (enzyme)
# chain: MSDKLPYKVADIGLAAWGRKALDIAENEMPGLMRMREMYSASKPLKGARIAGCLHMTVETAVLIETLVALGAEVRWSSCNIFSTQDHAAAAIAKAGIPVFAWKGETDEEYLWCIEQTLHFKDGPLNMILDDGGDLTNLIHTKYPQLLSGIRGISEETTTGVHNLYKMMSNGILKVPAINVNDSVTKSKFDNLYGCRESLIDGIKRATDVMIAGKVAVVAGYGDVGKGCAQALRGFGARVIITEIDPINALQAAMEGYEVTTMDEACKEGNIFVTTTGCVDIILGRHFEQMKDDAIVCNIGHFDVEIDVKWLNENAVEKVNIKPQVDRYWLKNGRRIILLAEGRLVNLGCAMGHPSFVMSNSFTNQVMAQIELWTHPDKYPVGVHFLPKKLDEAVAEAHLGKLNVKLTKLTEKQAQYLGMPINGPFKPDHYRY
# B2: S-adenosyl-L-homocysteine hydrolase from Methanococcus maripaludis (enzyme)
# chain: MSNVKDMSLAPSGHLKMEWAKRHMPVLCRIAEEFKNDKPFEGLTIGMALHLEAKTAILAETLLEGGAKIVITGCNPLSTQDDVAAACVEKGMEVYAWRGETNEEYYENLNKVLDSNPDIIIDDGADLIFLIHTERTELIGKIMGGCEETTTGIIRLKSMAEEGALKFPVVNVNDAYTKHLFDNRYGTGQSAMDGIIRTTNLLIAGKNVVVGGYGWCGRGVASRAAGHGANVIITEVNPIRALEAKMDGFTVLKMEEAAKIGDIFVTTTGCKDILRMEHFLLMKDGAVLSNAGHFDNEINKNDLKELSKSVKEARFNIEEYDLGNKKIYLLGEGRLVNLACADGHPCEVMDMSFANQALSAKFIKENKGKLENEVYEIPYEQDFKIALLKLHSMGADIDELSPEQRKYLSDWKEGT
# B3: S-adenosyl-L-homocysteine hydrolase from Sulfolobus acidocaldarius (enzyme)
# chain: MDYRVKDLSLAEQGRKQIEWAELHMPALMEIRKRFNAEKPLDGIRIGAVLHVTKETAVLVETLKAGGAEIALAGSNPLSTQDDVAAGLAKNGIHVYAWRGETEKDYYDNIREILKYEPHVIMDDGGDLHAYVHENNLTSKIVGGTEETTTGVIRLKAMEEEKVLKYPVIAVNNAFTKYLFDNRIGTGQSTIDGILRATNILIAGKVAVVIGYGWVGRGIASRFKGMGARVIVVESSPFRALEALMDGFDVMTMNRASEIGDIFVTATGNLNVVSRDHILRMKDGAVLANSGHFNVEIDVKGLKEISVETREVRQNLEEYKLRNGKRIYLLADGRLVNLVAAEGHPSEVMDLSFCNQALSVEHLIKNKGKLENKVYNVPIEIDEQVARLKLKALGIEIEELTIEQKEYIKQWKYGT
# B4: S-adenosyl-L-homocysteine hydrolase from Pyrococcus furiosus (enzyme)
# chain: MDCGKDYCVKDLSLAEEGWKKIDWVSRFMPVLQYIKREFEEKKPFKGVRIAATLHLEMKTAFLLLTLKAGGAEVSAAASNPLSTQDDVVAALAKAGVKVYAIRGESREQYYEFMHKALDIRPNIIIDDGADMISLVHKERQEMLDEIWGGSEETTTGVIRLRAMEKAGILKFPVIAVNDSYMKYLFDNRYGTGQSTWDGIMRATNLLIAGKNVVVVGYGWCGRGIAMRARGLGATVIVVEVDPIKALEARMDGFLVMDMKEAAKIGDIFVTATGNIKCIRREHFELMKDGAIMANAGHFDVEIWKPDLEKLAVEINNPRPNVTEYKLKDGRRLYLLADGRLVNLVAADGHPAEIMDMSFALQAKAAEYIKDNHERLEPKVYILPREIDEMVARIKLESMGIKIEELTEEQKKYLESWEHGT
# Columns and labels:
# Test in all cases: crystal structure
# crystal structure [1] = biological target: the molecule itself
# crystal structure [2] = biological target: the molecule itself; remark: listed apart in the source
# crystal structure [3] = biological target: the molecule itself; remark: listed apart in the source
# crystal structure [4] = biological target: the molecule itself; remark: listed apart in the source
protein,measurement,setting,value
B1,binding result,crystal structure [1],binds
B2,stoichiometry N,crystal structure [2],4
B3,stoichiometry N,crystal structure [3],4
B4,stoichiometry N,crystal structure [4],4
